This passage reports FRET efficiency (donor AKAP350, acceptor EB1) and FRET efficiency (donor EB1, acceptor AKAP350) results from paper PMC5668257.

This experiment addresses EB1 (dog (endogenous in MDCK)). In words: FRET or BRET; immuno-FRET by acceptor photobleaching at the centrosome area of fixed mitotic MDCK cells; primary antibodies with secondary antibodies labelled with Alexa 555 (donor) and Cy5 or Alexa 633 (acceptor), 1 donor : 2 acceptor. (In general: Bioluminescence resonance energy transfer reports proximity on the nanometre scale.)

In turn, AKAP350 (natural protein) returned an FRET efficiency (donor AKAP350, acceptor EB1) of 11% and an FRET efficiency (donor EB1, acceptor AKAP350) of 5%.
